Patent publication US20250074984A1

What was measured:
FcγRIIβ [1] = target: FcγRIIβ (UniProt P31994); assay: ratio of the chip-kinetics KDs on Hu FcgRIIA_R167 and Hu FcgRIIB
FcγRIIβ [2] = target: FcγRIIβ (UniProt P31994); assay: ratio of the chip-kinetics KDs on Hu FcgRIIB and Hu FcgRIIA_R167
[3] = target: human FcγRIIα_R167 (human) (UniProt P12318); assay: chip kinetics; antibody captured on protein A/G, receptor injected as analyte
FcγRIIβ [4] = target: FcγRIIβ (UniProt P31994); assay: as above
[5] = target: human FcγRIIα_H167 (human) (UniProt P12318); assay: as above
human FcγRIIα_H167 (human), sequence (P12318 36-218): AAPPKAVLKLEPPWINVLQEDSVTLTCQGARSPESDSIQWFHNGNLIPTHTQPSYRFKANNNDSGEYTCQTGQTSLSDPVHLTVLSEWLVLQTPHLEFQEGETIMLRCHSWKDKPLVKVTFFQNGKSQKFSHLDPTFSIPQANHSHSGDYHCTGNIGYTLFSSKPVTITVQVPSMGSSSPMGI

FcγRIIβ, sequence (P31994 46-217): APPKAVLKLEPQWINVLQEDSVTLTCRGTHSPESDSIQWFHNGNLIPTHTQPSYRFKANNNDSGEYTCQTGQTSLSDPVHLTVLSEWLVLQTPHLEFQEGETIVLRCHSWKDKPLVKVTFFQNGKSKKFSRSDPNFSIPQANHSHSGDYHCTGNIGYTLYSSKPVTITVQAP
human FcγRIIα_R167 (human), sequence (P12318 36-218 H167R): as the sequence (P12318 36-218) above, with H132R counted along it

Ratio iia/iib (KD human iia R/KD human iib) (FcγRIIβ [1])	Ratio iib/iia (KD human iib/KD human iia R) (FcγRIIβ [2])	Fold = KD(IgG WT)/KD(variants) [3] [fold]	Fold = KD(IgG WT)/KD(variants) (FcγRIIβ [4]) [fold]	Kd (FcγRIIβ [4]) [µM]	Kd [3] [µM]	Kd [5] [µM]	Substance
3.12	0.32	< 0.3	3.18	1.6			IgG1 P238D (antibody)
					1.55	1	IgG1 WT (antibody)
